B1: Aprataxin and PNK-like factor (Homo sapiens), Q8IW19 (parent)
chain: MSGGFELQPRDGGPRVALAPGETVIGRGPLLGITDKRVSRRHAILEVAGGQLRIKPIHTNPCFYQSSEKSQLLPLKPNLWCYLNPGDSFSLLVDKYIFRILSIPSEVEMQCTLRNSQVLDEDNILNETPKSPVINLPHETTGASQLEGSTEIAKTQMTPTNSVSFLGENRDCNKQQPILAERKRILPTWMLAEHLSDQNLSVPAISGGNVIQGSGKEEICKDKSQLNTTQQGRRQLISSGSSENTSAEQDTGEECKNTDQEESTISSKEMPQSFSAITLSNTEMNNIKTNAQRNKLPIEELGKVSKHKIATKRTPHKEDEAMSCSENCSSAQGDSLQDESQGSHSESSSNPSNPETLHAKATDSVLQGSEGNKVKRTSCMYGANCYRKNPVHFQHFSHPGDSDYGGVQIVGQDETDDRPECPYGPSCYRKNPQHKIEYRHNTLPVRNVLDEDNDNVGQPNEYDLNDSFLDDEEEDYEPTDEDSDWEPGKEDEEKEDVEELLKEAKRFMKRK

Variants of: B1
Conditions: with xrcc5_human XRCC5, P13010
Sequence of xrcc5_human XRCC5, P13010 (P13010 whole entry): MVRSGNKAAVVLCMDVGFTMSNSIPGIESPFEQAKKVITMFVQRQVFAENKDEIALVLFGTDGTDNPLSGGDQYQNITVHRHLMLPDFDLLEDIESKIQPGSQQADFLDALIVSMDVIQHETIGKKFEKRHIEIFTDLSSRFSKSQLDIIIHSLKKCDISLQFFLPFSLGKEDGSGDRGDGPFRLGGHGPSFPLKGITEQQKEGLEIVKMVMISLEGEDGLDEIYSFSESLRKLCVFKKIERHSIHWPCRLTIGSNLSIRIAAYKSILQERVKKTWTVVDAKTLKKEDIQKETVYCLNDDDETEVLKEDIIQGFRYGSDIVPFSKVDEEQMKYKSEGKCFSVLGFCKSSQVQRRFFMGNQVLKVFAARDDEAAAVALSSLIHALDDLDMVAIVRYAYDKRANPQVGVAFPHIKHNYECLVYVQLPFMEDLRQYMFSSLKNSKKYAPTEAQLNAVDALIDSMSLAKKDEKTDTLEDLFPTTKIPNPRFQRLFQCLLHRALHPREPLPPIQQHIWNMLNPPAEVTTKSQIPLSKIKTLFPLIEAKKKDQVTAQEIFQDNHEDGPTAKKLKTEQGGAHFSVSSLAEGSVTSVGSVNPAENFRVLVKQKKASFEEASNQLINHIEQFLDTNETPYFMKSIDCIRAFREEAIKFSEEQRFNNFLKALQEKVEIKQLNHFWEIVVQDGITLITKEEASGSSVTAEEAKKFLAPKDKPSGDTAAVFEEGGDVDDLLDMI

effect of a mutation on the interaction	Variant
disrupting interaction	W189G
